Assay results reported in US20040266664.

Assays:
Ac-ALLL-epoxide = test system: T1, Ac-ALLL-epoxide
T1 sequence: XLLX

Ac-PPFL-Ex = test system: T2, Ac-PPFL-Ex
T2 sequence: XPFX

[1] = test system: T3, tetrapeptide epoxide with P3 1-naphthyl, other side chains leucine
T3 sequence: LXLL

compound 18 = test system: T4, compound 18
T4 sequence: XLFX

Isooctanioc-PFL-Ex = test system: T5, Isooctanioc-PFL-Ex
T5 sequence: PFL

Ac-GGPFL-Ex = test system: T6, Ac-GGPFL-Ex
T6 sequence: XGPFX

compound 16 = test system: T7, compound 16
T7 sequence: XLFX

[2] = test system: T8, tetrapeptide epoxide with P4 methylphenyl, other side chains leucine
T8 sequence: XLLL

Ac-AVL-Ex = test system: T9, Ac-AVL-Ex
T9 sequence: AVL

Ac-LLAL-epoxide = test system: T10, Ac-LLAL-epoxide
T10 sequence: XLAX

[3] = test system: T11, N-dimethylaminobenzoyl-PFL-EX
T11 sequence: PFL

Ac-PFL-Ex = test system: T12, Ac-PFL-Ex
T12 sequence: PFL

[4] = test system: T13, monoleucine α′,β′-epoxide
T13 sequence: L

[5] = test system: T14, tetrapeptide epoxide with P2 1-naphthyl, other side chains leucine
T14 sequence: LLXL

Ac-LFLL-epoxide = test system: T15, Ac-LFLL-epoxide
T15 sequence: XFLX

Benzoylbenzoic-PFL-Ex = test system: T16, Benzoylbenzoic-PFL-Ex
T16 sequence: PFL

Ac-NorLPFL-Ex = test system: T17, Ac-NorLPFL-Ex
T17 sequence: XPFX

[6] = test system: T18, tetrapeptide epoxide with P4 phenyl, other side chains leucine
T18 sequence: FLLL

Ac-LALL-epoxide = test system: T19, Ac-LALL-epoxide
T19 sequence: XALX

trileucine α′,β′-epoxide = test system: T20, trileucine α′,β′-epoxide
T20 sequence: LLL

[7] = test system: T21, N-acetyl-piperidinecarbonyl-PFL-Ex
T21 sequence: PFL

dileucine α′,β′-epoxide = test system: T22, dileucine α′,β′-epoxide
T22 sequence: LL

Ac-IVL-Ex = test system: T23, Ac-IVL-Ex
T23 sequence: IVL

[8] = test system: T24, tetraleucine α′,β′-epoxide
T24 sequence: LLLL

Eponemycin = test system: T25, Eponemycin
T25 sequence: SL

[9] = test system: T26, tetrapeptide epoxide with P4 1-naphthyl, other side chains leucine
T26 sequence: XLLL

Ac-LLFL-epoxide = test system: T27, Ac-LLFL-epoxide
T27 sequence: XLFX

Ac-GPFL-Ex = test system: T28, Ac-GPFL-Ex
T28 sequence: XPFX

[10] = test system: T29, tetrapeptide epoxide with P4 p-benzoylphenyl, other side chains leucine
T29 sequence: XLLL

Pyrazinecarbonyl-PFL-Ex = test system: T30, Pyrazinecarbonyl-PFL-Ex
T30 sequence: PFL

For “purified bovine erythrocyte 20S proteasome”, the kobs/[I], PGPH activity (Z-LLE-AMC) (Ac-ALLL-epoxide) was 220 M⁻¹ s⁻¹, the kobs/[I], chymotrypsin-like activity (Suc-LLVY-AMC) (Ac-ALLL-epoxide) was 5300 M⁻¹ s⁻¹ and the kobs/[I], tryptic-like activity (Boc-LRR-AMC) (Ac-ALLL-epoxide) was 3.8 M⁻¹ s⁻¹. The kobs/[I], PGPH activity (Ac-PPFL-Ex) was 10.6 M⁻¹ s⁻¹, the kobs/[I], chymotrypsin-like activity (Ac-PPFL-Ex) was 6.4 M⁻¹ s⁻¹ and the “kobs/[I], trypsin-like activity” value (Ac-PPFL-Ex) was “NI”. For the same substance, the “kobs/[I], PGPH activity (Z-LLE-AMC)” value [1] was “not measurable”, the kobs/[I], chymotryptic-like activity (Suc-LLVY-AMC) [1] was 31000 M⁻¹ s⁻¹ and the “kobs/[I], tryptic-like activity (Boc-LRR-AMC)” value (shortened to “kobs/[I], tryptic-like activity”) [1] was “not measurable”. For the same substance, the “kassoc = kobs/[I], PGPH activity” value (compound 18) was 11 (10-150 µM), the “kassoc = kobs/[I], chymotrypsin-like activity” value (compound 18) was 5200 (0.11 µM) and the “kassoc = kobs/[I], trypsin-like activity” value (compound 18) was 580 (0.5-5 µM). For the same substance, the kobs/[I], PGPH activity (Isooctanioc-PFL-Ex) was 194 M⁻¹ s⁻¹, the kobs/[I], chymotrypsin-like activity (Isooctanioc-PFL-Ex) was 190 M⁻¹ s⁻¹ and the “kobs/[I], trypsin-like activity” value (Isooctanioc-PFL-Ex) was “NI”. The kobs/[I], PGPH activity (Ac-GGPFL-Ex) was 170 M⁻¹ s⁻¹, the kobs/[I], chymotrypsin-like activity (Ac-GGPFL-Ex) was 170 M⁻¹ s⁻¹ and the kobs/[I], trypsin-like activity (Ac-GGPFL-Ex) was 1.3 M⁻¹ s⁻¹. The “kassoc = kobs/[I], PGPH activity” value (compound 16) was 21 (80-150 µM), the “kassoc = kobs/[I], trypsin-like activity” value (compound 16) was 7.1 (80-130 µM) and the kobs/[I], chymotryptic-like activity (Suc-LLVY-AMC) (compound 16) was 183000 M⁻¹ s⁻¹. The kobs/[I], PGPH activity (Z-LLE-AMC) [2] was 50 M⁻¹ s⁻¹, the kobs/[I], chymotryptic-like activity (Suc-LLVY-AMC) [2] was 63000 M⁻¹ s⁻¹ and the kobs/[I], tryptic-like activity (Boc-LRR-AMC) [2] was 5.4 M⁻¹ s⁻¹. It also gave a kobs/[I], PGPH activity (Ac-AVL-Ex) of 12.7 M⁻¹ s⁻¹, a kobs/[I], chymotrypsin-like activity (Ac-AVL-Ex) of 10.8 M⁻¹ s⁻¹ and a kobs/[I], trypsin-like activity (Ac-AVL-Ex) of 1.8 M⁻¹ s⁻¹. The kobs/[I], PGPH activity (Z-LLE-AMC) (Ac-LLAL-epoxide) was 20 M⁻¹ s⁻¹, the kobs/[I], chymotrypsin-like activity (Suc-LLVY-AMC) (Ac-LLAL-epoxide) was 16000 M⁻¹ s⁻¹ and the kobs/[I], tryptic-like activity (Boc-LRR-AMC) (Ac-LLAL-epoxide) was 4.1 M⁻¹ s⁻¹. The kobs/[I], PGPH activity [3] was 150 M⁻¹ s⁻¹, the kobs/[I], chymotrypsin-like activity [3] was 220 M⁻¹ s⁻¹ and the “kobs/[I], trypsin-like activity” value [3] was “NI”. For the same substance, the kobs/[I], PGPH activity (Ac-PFL-Ex) was 32 M⁻¹ s⁻¹, the kobs/[I], chymotrypsin-like activity (Ac-PFL-Ex) was 42 M⁻¹ s⁻¹ and the “kobs/[I], trypsin-like activity” value (Ac-PFL-Ex) was “NI”. For the same substance, the “kobs/[I], PGPH activity” value [4] was “†”, the “kobs/[I], chymotrypsin-like activity” value [4] was “†” and the “kobs/[I], trypsin-like activity” value [4] was “†”. The “kobs/[I], PGPH activity (Z-LLE-AMC)” value [5] was “not measurable”, the kobs/[I], chymotryptic-like activity (Suc-LLVY-AMC) [5] was 29000 M⁻¹ s⁻¹ and the “kobs/[I], tryptic-like activity” value [5] was “not measurable”. The “kobs/[I], PGPH activity (Z-LLE-AMC)” value (Ac-LFLL-epoxide) was “not measurable”, the kobs/[I], chymotrypsin-like activity (Suc-LLVY-AMC) (Ac-LFLL-epoxide) was 8500 M⁻¹ s⁻¹ and the “kobs/[I], tryptic-like activity” value (Ac-LFLL-epoxide) was “not measurable”. For the same substance, the kobs/[I], PGPH activity (Benzoylbenzoic-PFL-Ex) was 140 M⁻¹ s⁻¹, the kobs/[I], chymotrypsin-like activity (Benzoylbenzoic-PFL-Ex) was 8.7 M⁻¹ s⁻¹ and the “kobs/[I], trypsin-like activity” value (Benzoylbenzoic-PFL-Ex) was “NI”. The kobs/[I], PGPH activity (Ac-NorLPFL-Ex) was 115 M⁻¹ s⁻¹, the kobs/[I], chymotrypsin-like activity (Ac-NorLPFL-Ex) was 1.9 M⁻¹ s⁻¹ and the “kobs/[I], trypsin-like activity” value (Ac-NorLPFL-Ex) was “NI”. It also gave a kobs/[I], PGPH activity (Z-LLE-AMC) [6] of 78 M⁻¹ s⁻¹, a kobs/[I], chymotryptic-like activity (Suc-LLVY-AMC) [6] of 37000 M⁻¹ s⁻¹ and a kobs/[I], tryptic-like activity (Boc-LRR-AMC) [6] of 5.5 M⁻¹ s⁻¹. The kobs/[I], PGPH activity (Z-LLE-AMC) (Ac-LALL-epoxide) was 130 M⁻¹ s⁻¹, the kobs/[I], chymotrypsin-like activity (Suc-LLVY-AMC) (Ac-LALL-epoxide) was 1300 M⁻¹ s⁻¹ and the kobs/[I], tryptic-like activity (Boc-LRR-AMC) (Ac-LALL-epoxide) was 2 M⁻¹ s⁻¹. For the same substance, the “kobs/[I], PGPH activity” value (trileucine α′,β′-epoxide) was 120 (8-12 µM), the “kobs/[I], chymotrypsin-like activity” value (trileucine α′,β′-epoxide) was 780 (1-2.5 µM) and the kobs/[I], trypsin-like activity (trileucine α′,β′-epoxide) was 5.1 M⁻¹ s⁻¹. The kobs/[I], PGPH activity [7] was 45.3 M⁻¹ s⁻¹, the kobs/[I], chymotrypsin-like activity [7] was 31.2 M⁻¹ s⁻¹ and the “kobs/[I], trypsin-like activity” value [7] was “NI”. For the same substance, the “kobs/[I], PGPH activity” value (dileucine α′,β′-epoxide) was “†”, the “kobs/[I], chymotrypsin-like activity” value (dileucine α′,β′-epoxide) was 3.1 (100-160 µM) and the “kobs/[I], trypsin-like activity” value (dileucine α′,β′-epoxide) was “†”. It also gave a kobs/[I], PGPH activity (Ac-IVL-Ex) of 14.6 M⁻¹ s⁻¹, a kobs/[I], chymotrypsin-like activity (Ac-IVL-Ex) of 5 M⁻¹ s⁻¹ and a kobs/[I], trypsin-like activity (Ac-IVL-Ex) of 6.7 M⁻¹ s⁻¹. The “kobs/[I], PGPH activity” value [8] was 9.2 (100-160 µM), the “kobs/[I], chymotrypsin-like activity” value [8] was 14,000 (50-150 nm) and the “kobs/[I], trypsin-like activity” value [8] was “†”. It also gave a kobs/[I], PGPH activity (Eponemycin) of 175 M⁻¹ s⁻¹, a kobs/[I], chymotrypsin-like activity (Eponemycin) of 58 M⁻¹ s⁻¹ and a kobs/[I], trypsin-like activity (Eponemycin) of 17 M⁻¹ s⁻¹. For the same substance, the “kobs/[I], PGPH activity (Z-LLE-AMC)” value [9] was “not measurable”, the kobs/[I], chymotryptic-like activity (Suc-LLVY-AMC) [9] was 29000 M⁻¹ s⁻¹ and the “kobs/[I], tryptic-like activity” value [9] was “not measurable”. The “kobs/[I], PGPH activity (Z-LLE-AMC)” value (Ac-LLFL-epoxide) was “not measurable”, the kobs/[I], chymotrypsin-like activity (Suc-LLVY-AMC) (Ac-LLFL-epoxide) was 54000 M⁻¹ s⁻¹ and the “kobs/[I], tryptic-like activity” value (Ac-LLFL-epoxide) was “not measurable”. The kobs/[I], PGPH activity (Ac-GPFL-Ex) was 190 M⁻¹ s⁻¹, the kobs/[I], chymotrypsin-like activity (Ac-GPFL-Ex) was 5 M⁻¹ s⁻¹ and the “kobs/[I], trypsin-like activity” value (Ac-GPFL-Ex) was “NI”. For the same substance, the kassoc = kobs/[I], PGPH activity (NLVS) was 6.4 M⁻¹ s⁻¹, the kassoc = kobs/[I], chymotrypsin-like activity (NLVS) was 6790 M⁻¹ s⁻¹ and the kassoc = kobs/[I], trypsin-like activity (NLVS) was 5.3 M⁻¹ s⁻¹. The “kobs/[I], PGPH activity (Z-LLE-AMC)” value [10] was “not measurable”, the kobs/[I], chymotryptic-like activity (Suc-LLVY-AMC) [10] was 23000 M⁻¹ s⁻¹ and the “kobs/[I], tryptic-like activity” value [10] was “not measurable”. It also gave a kobs/[I], PGPH activity (Pyrazinecarbonyl-PFL-Ex) of 23 M⁻¹ s⁻¹, a kobs/[I], chymotrypsin-like activity (Pyrazinecarbonyl-PFL-Ex) of 520 M⁻¹ s⁻¹ and a kobs/[I], trypsin-like activity (Pyrazinecarbonyl-PFL-Ex) of 3.7 M⁻¹ s⁻¹.
